Reference: the supplement of paper PMC10724198
± gives the standard deviation of the averaged measurements.

Test system: Saccharomyces cerevisiae
Test: protein stability index of tFT-peptide fusion (C-terminal peptide) (PSI (0-1 scale)); higher = more stable (slower turnover)
Settings: temperature: 30 C
Method: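 MPS profiling in S. cerevisiae of the yeast C-terminome library: the last 12 aa of each annotated ORF are fused to the C-terminus of a sfGFP-mCherry timer, after a GGGS linker. Cells are FACS-sorted into 8 mCherry/sfGFP bins and deep-sequenced. PSI runs from 0 (unstable) to 1 (stable); wild type and das1Δ backgrounds, two technical replicates each.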

[1] = genetic background: das1 deletion

Sequence	protein stability index [1]	protein stability index (genetic background: wild type)
STITSMNPDTTK [VHS2 C-terminal 12 aa]	0.711 ± 0.031	0.669 ± 0.04
STKATPTDLSKL [MLS1 C-terminal 12 aa]	0.7565 ± 0.0027	0.8075 ± 0.0051
STTMNFNYQTKV [SDD1 C-terminal 12 aa]	0.696 ± 0.011	0.363 ± 0.0082
STVLINVCKPTY [BAR1 C-terminal 12 aa]	0.681 ± 0.013	0.667 ± 0.048
SVFIAAVAAMLI [CCW14 C-terminal 12 aa]	0.603 ± 0.013	0.586 ± 0.016
SVSYASGYVTIG [MHO1 C-terminal 12 aa]	0.705 ± 0.034	0.64 ± 0.011
SVTAGYLPDLWR [YCH1 C-terminal 12 aa]	0.73 ± 0.0093	0.728 ± 0.036
SYEIVKNGHKNS [APC2 C-terminal 12 aa]	0.6772 ± 0.0007	0.687 ± 0.018
TADIVYIDSELD [SPE1 C-terminal 12 aa]	0.6746 ± 0.0022	0.694 ± 0.083
TANKAGNKFQLS [LDO16 C-terminal 12 aa]	0.707 ± 0.0029	0.675 ± 0.019
TATAPRLFDKLK [QCR6 C-terminal 12 aa]	0.7007 ± 0.007	0.662 ± 0.026
TAYFICGMVIQL [YDL041W C-terminal 12 aa]	0.349 ± 0.014	0.34 ± 0.011
TCEACGNRWKFS [DST1 C-terminal 12 aa]	0.7329 ± 0.0019	0.697 ± 0.013
TCEKSKCNCEKC [CRS5 C-terminal 12 aa]	0.682 ± 0.012	0.69 ± 0.082
TDGSKEDVDALP [ZNF1 C-terminal 12 aa]	0.688 ± 0.02	0.716 ± 0.039
TEISRHFIVVFV [YHR182C-A C-terminal 12 aa]	0.306 ± 0.0088	0.351 ± 0.028
TEKDSTTTNYRK [YJL218W C-terminal 12 aa]	0.702 ± 0.028	0.698 ± 0.034
TEPESDTEVETS [WHI5 C-terminal 12 aa]	0.676 ± 0.01	0.662 ± 0.013
TEPLYILRWLRS [YDR290W C-terminal 12 aa]	0.678 ± 0.008	0.313 ± 0.0053
TFAKSSRNKSKL [PCS60 C-terminal 12 aa]	0.835 ± 0.011	0.811 ± 0.073
TFVDDKLKELPQ [PTP3 C-terminal 12 aa]	0.719 ± 0.042	0.655 ± 0.0034

Sequence	protein stability index [1]	protein stability index (genetic background: wild type)
THKQYFWKKPAK [TOS4 C-terminal 12 aa]	0.707 ± 0.03	0.688 ± 0.058
TIHTEVNIGIKQ [ENA1 C-terminal 12 aa]	0.7199 ± 0.0013	0.736 ± 0.027
TKWHDKFGKLKN [SHE2 C-terminal 12 aa]	0.693 ± 0.024	0.6795 ± 0.0042
TLFDLIEKKVTA [TAL1 C-terminal 12 aa]	0.67 ± 0.0085	0.652 ± 0.028
TLKKIFSKRSIS [YCL049C C-terminal 12 aa]	0.722 ± 0.02	0.4651 ± 0.0019
TLTQEEINELST [LTE1 C-terminal 12 aa]	0.69603 ± 0.00028	0.689 ± 0.041
TNGLINQFKEWM [PGI1 C-terminal 12 aa]	0.673 ± 0.015	0.736 ± 0.082
TPLGPKPDIRPP [GTO3 C-terminal 12 aa]	0.712 ± 0.013	0.693 ± 0.017
TPLPGLSWPFNE [YIL014C-A C-terminal 12 aa]	0.74 ± 0.021	0.74 ± 0.061
TPVIDFSLKLAH [BNA6 C-terminal 12 aa]	0.693 ± 0.017	0.7 ± 0.026
TQQVVDDVLSRL [LYS12 C-terminal 12 aa]	0.738 ± 0.0082	0.732 ± 0.038
TSSTPLVIVDSK [HXT10 C-terminal 12 aa]	0.672 ± 0.013	0.713 ± 0.064
TTEKKKKKCVLL [RHO1 C-terminal 12 aa]	0.684 ± 0.0099	0.6878 ± 0.0017
TTIKNIDILNRT [SMC4 C-terminal 12 aa]	0.717 ± 0.024	0.694 ± 0.048
TTVDRTGNGAFW [YLR154C-H C-terminal 12 aa]	0.703 ± 0.017	0.723 ± 0.036
TVPEFPAPIFPN [YDL159C-B C-terminal 12 aa]	0.72 ± 0.019	0.689 ± 0.0079
TVQSKLGDHGFN [PEP7 C-terminal 12 aa]	0.679 ± 0.015	0.707 ± 0.048
TYKRIKQDEKTD [ALG12 C-terminal 12 aa]	0.7248 ± 0.0072	0.707 ± 0.015
VACNPVAMADHQ [TUS1 C-terminal 12 aa]	0.71 ± 0.033	0.677 ± 0.019
VADAMLDQGDVF [GDH3 C-terminal 12 aa]	0.7137 ± 0.0052	0.6894 ± 0.0047
VDDYVAAGFQTL [SUT2 C-terminal 12 aa]	0.7372 ± 0.0021	0.714 ± 0.018

Sequence	protein stability index [1]	protein stability index (genetic background: wild type)
VDFLSKKLLKLR [YFL041W-A C-terminal 12 aa]	0.694 ± 0.0088	0.708 ± 0.0078
VDIALYLTRSQT [YGR039W C-terminal 12 aa]	0.699 ± 0.017	0.694 ± 0.011
VEIFVDKLIDFL [THI80 C-terminal 12 aa]	0.674 ± 0.014	0.656 ± 0.027
VEMAVKFGKNAF [RIB4 C-terminal 12 aa]	0.696 ± 0.012	0.689 ± 0.059
VESKFTEKIKSM [RPC19 C-terminal 12 aa]	0.6704 ± 0.0024	0.559 ± 0.027
VETELEMVAEKA [YEH1 C-terminal 12 aa]	0.646 ± 0.0079	0.665 ± 0.061
VFLYRKRIFIKL [GWT1 C-terminal 12 aa]	0.606 ± 0.021	0.485 ± 0.023
VFTPFLFGELIG [ERG1 C-terminal 12 aa]	0.718 ± 0.0073	0.712 ± 0.035
VHDQTNLELYYL [HUB1 C-terminal 12 aa]	0.708 ± 0.0075	0.6895 ± 0.0058
VHKDLDIKTVTL [PRO2 C-terminal 12 aa]	0.691 ± 0.013	0.671 ± 0.0073
VHKLGWSLSFDA [POR1 C-terminal 12 aa]	0.706 ± 0.022	0.6642 ± 0.0033
VILYRSVMKLSP [YOR073W-A C-terminal 12 aa]	0.646 ± 0.011	0.66 ± 0.017
VISYLLGADIHF [SMF3 C-terminal 12 aa]	0.712 ± 0.013	0.7135 ± 0.0039
VKDRPRGKDARL [RML2 C-terminal 12 aa]	0.727 ± 0.058	0.805 ± 0.029
VKKCWEKEKDGI [MKK2 C-terminal 12 aa]	0.675 ± 0.018	0.663 ± 0.026
VLDQITGDLKLY [PTH2 C-terminal 12 aa]	0.691 ± 0.014	0.6285 ± 0.0052
VLLIRSDKKKKV [YIL102C-A C-terminal 12 aa]	0.71 ± 0.024	0.696 ± 0.035
VLSNLAVKALQN [PRM3 C-terminal 12 aa]	0.68 ± 0.018	0.646 ± 0.023
VMQVQCLFFFIL [YJL156W-A C-terminal 12 aa]	0.556 ± 0.019	0.284 ± 0.0037
VNNAPARAKVSK [RCR2 C-terminal 12 aa]	0.67539 ± 0.00065	0.669 ± 0.0023
VPELTEKLGKYK [AIM45 C-terminal 12 aa]	0.697 ± 0.019	0.676 ± 0.026

Sequence	protein stability index [1]	protein stability index (genetic background: wild type)
VRKNVTWNNLWE [CTF18 C-terminal 12 aa]	0.705 ± 0.013	0.682 ± 0.042
VRKVAQWLQQLT [FSH2 C-terminal 12 aa]	0.6838 ± 0.0012	0.5807 ± 0.0037
VSGFYDHDINGY [APJ1 C-terminal 12 aa]	0.7529 ± 0.0033	0.722 ± 0.0078
VSIKKLGRKLEN [FYV6 C-terminal 12 aa]	0.727 ± 0.023	0.6469 ± 0.0013
VSMKAIFSCMYV [YMR272W-B C-terminal 12 aa]	0.6576 ± 0.0051	0.655 ± 0.034
VTGFKDEVLETV [RPS1A C-terminal 12 aa]	0.7042 ± 0.001	0.682 ± 0.032
VTGSVPAYCDDD [ART5 C-terminal 12 aa]	0.6825 ± 0.0031	0.694 ± 0.011
VTIFTWSSLLFV [TED1 C-terminal 12 aa]	0.438 ± 0.0058	0.454 ± 0.0084
VTNPKGRLALEA [RPL32 C-terminal 12 aa]	0.6613 ± 0.0025	0.686 ± 0.026
VTQILYTPIESS [SIP2 C-terminal 12 aa]	0.679 ± 0.028	0.696 ± 0.03
VTVYGGRSRMSA [YJL152W C-terminal 12 aa]	0.6989 ± 0.0061	0.702 ± 0.02
VVGFYFQGALSE [VNX1 C-terminal 12 aa]	0.673 ± 0.025	0.708 ± 0.037
VVIIVPIVVHFS [SNC2 C-terminal 12 aa]	0.351 ± 0.012	0.425 ± 0.046
VVKRKKVKTKRI [JJJ1 C-terminal 12 aa]	0.689 ± 0.041	0.748 ± 0.14
VVNNRIFSGISK [RSM26 C-terminal 12 aa]	0.713 ± 0.027	0.698 ± 0.018
VWKRARVDLIAS [POL12 C-terminal 12 aa]	0.591 ± 0.019	0.51 ± 0.029
VWLAAALPLAFI [PRM7 C-terminal 12 aa]	0.58 ± 0.0063	0.56 ± 0.018
VWSLYSRTALET [OAR1 C-terminal 12 aa]	0.6176 ± 0.004	0.608 ± 0.012
VYSIESRVLGHN [OAC1 C-terminal 12 aa]	0.679 ± 0.015	0.676 ± 0.055
